Test results as given in the supplement of paper PMC10567573.

B1: KRT34 (parent)
chain: YQSYFKTIEELQQKILCAKAENAR

Variants of: B1
Assay: protein stability index of a GFP-peptide fusion (GPS, HEK-293T) (PSI 1-6); higher = more stable
Conditions: c terminus: a fixed tail appended
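Note: lentivirally expressed fusions sorted by FACS into six bins by GFP to DsRed ratio, PSI derived from sequencing read proportions per bin multiplied by bin number.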

Compared with YQSYFKTIEELQQKIYCAKAENAR, YQSYFKTIEELQQKIMCAKAENAR is lower in protein stability index: 2.28 for the first, 1.89 for the second.

Compared with YQSYFKTIEELQQKIICAKAENAR, YQSYFKTIEELQQKIFCAKAENAR is lower in protein stability index: 1.67 for the first, 1.6 for the second.

Compared with YQSYFKTIEELQQKIKCAKAENAR, YQSYFKTIEELQQKIPCAKAENAR is lower in protein stability index: 1.92 for the first, 1.41 for the second.

Compared with YQSYFKTIEELQQKITCAKAENAR, YQSYFKTIEELQQKIWCAKAENAR is lower in protein stability index: 1.72 for the first, 1.29 for the second.

First: YQSYFKTIEELQQKIACAKAENAR
Second: YQSYFKTIEELQQKIDCAKAENAR
The protein stability index of the first is lower: 1.8 for the first, 1.96 for the second.

Going from YQSYFKTIEELQQKICCAKAENAR to YQSYFKTIEELQQKISCAKAENAR, the protein stability index rises from 1.84 to 1.97.

Going from YQSYFKTIEELQQKIQCAKAENAR to YQSYFKTIEELQQKIGCAKAENAR, the protein stability index rises from 1.66 to 2.02.

First: YQSYFKTIEELQQKIRCAKAENAR
Second: YQSYFKTIEELQQKINCAKAENAR
The protein stability index of the first is higher: 2.02 for the first, 1.75 for the second.

First: YQSYFKTIEELQQQILCAKAENAR
Second: YQSYFKTIEELQQCILCAKAENAR
The protein stability index of the first is higher: 2.14 for the first, 1.2 for the second.

Compared with YQSYFKTIEELQQDILCAKAENAR, YQSYFKTIEELQQEILCAKAENAR is higher in protein stability index: 1.23 for the first, 2.61 for the second.

Compared with YQSYFKTIEELQQFILCAKAENAR, YQSYFKTIEELQQWILCAKAENAR is higher in protein stability index: 2 for the first, 3.3 for the second.

Compared with YQSYFKTIEELQQPILCAKAENAR, YQSYFKTIEELQQGILCAKAENAR is lower in protein stability index: 1.97 for the first, 1.69 for the second.

Compared with YQSYFKTIEELQQNILCAKAENAR, YQSYFKTIEELQQMILCAKAENAR is lower in protein stability index: 1.53 for the first, 1.46 for the second.

Compared with YQSYFKTIEELQQSILCAKAENAR, YQSYFKTIEELQQYILCAKAENAR is lower in protein stability index: 2.27 for the first, 1.46 for the second.

First: YQSYFKTIEELQQIILCAKAENAR
Second: YQSYFKTIEELQQLILCAKAENAR
The protein stability index of the first is lower: 1.52 for the first, 2.62 for the second.

Compared with YQSYFKTIEELQQHILCAKAENAR, YQSYFKTIEELQQVILCAKAENAR is lower in protein stability index: 1.99 for the first, 1.98 for the second.

First: YQSYFKTIEELQQRILCAKAENAR
Second: YQSYFKTIEELQQTILCAKAENAR
The protein stability index of the first is higher: 1.77 for the first, 1.56 for the second.

Going from YQSYFKTIEELQQAILCAKAENAR to YQSYFKTIEEQQQKILCAKAENAR, the protein stability index rises from 1.41 to 1.98.

First: YQSYFKTIEESQQKILCAKAENAR
Second: YQSYFKTIEECQQKILCAKAENAR
The protein stability index of the first is lower: 1.2 for the first, 2.56 for the second.

Compared with YQSYFKTIEEDQQKILCAKAENAR, YQSYFKTIEEAQQKILCAKAENAR is higher in protein stability index: 1.5 for the first, 1.79 for the second.

Going from YQSYFKTIEEKQQKILCAKAENAR to YQSYFKTIEEFQQKILCAKAENAR, the protein stability index falls from 2.34 to 1.4.

Going from YQSYFKTIEERQQKILCAKAENAR to YQSYFKTIEEVQQKILCAKAENAR, the protein stability index falls from 1.83 to 1.35.

Compared with YQSYFKTIEEPQQKILCAKAENAR, YQSYFKTIEEIQQKILCAKAENAR is lower in protein stability index: 2.3 for the first, 2.13 for the second.

First: YQSYFKTIEEWQQKILCAKAENAR
Second: YQSYFKTIEEYQQKILCAKAENAR
The protein stability index of the first is lower: 1.93 for the first, 2.08 for the second.

Compared with YQSYFKTIEEEQQKILCAKAENAR, YQSYFKTIEETQQKILCAKAENAR is lower in protein stability index: 1.88 for the first, 1.62 for the second.

First: YQSYFKTIEEGQQKILCAKAENAR
Second: YQSYFKTIEEMQQKILCAKAENAR
The protein stability index of the first is higher: 2.58 for the first, 1.81 for the second.

First: YQSYFKTIEEHQQKILCAKAENAR
Second: YQSYFKTIEENQQKILCAKAENAR
The protein stability index of the first is lower: 1.55 for the first, 2.41 for the second.

Going from YQSYFKTIEELQQKCLCAKAENAR to YQSYFKTIEELQQKDLCAKAENAR, the protein stability index rises from 1.16 to 1.88.

First: YQSYFKTIEELQQKKLCAKAENAR
Second: YQSYFKTIEELQQKHLCAKAENAR
The protein stability index of the first is higher: 2.71 for the first, 1.87 for the second.

Going from YQSYFKTIEELQQKFLCAKAENAR to YQSYFKTIEELQQKMLCAKAENAR, the protein stability index rises from 1.6 to 1.89.

Compared with YQSYFKTIEELQQKWLCAKAENAR, YQSYFKTIEELQQKTLCAKAENAR is lower in protein stability index: 2.2 for the first, 1.57 for the second.

Going from YQSYFKTIEELQQKRLCAKAENAR to YQSYFKTIEELQQKLLCAKAENAR, the protein stability index rises from 1.66 to 1.95.

Compared with YQSYFKTIEELQQKSLCAKAENAR, YQSYFKTIEELQQKYLCAKAENAR is higher in protein stability index: 1.81 for the first, 2.25 for the second.

Going from YQSYFKTIEELQQKNLCAKAENAR to YQSYFKTIEELQQKGLCAKAENAR, the protein stability index falls from 2.23 to 1.45.

Going from YQSYFKTIEELQQKELCAKAENAR to YQSYFKTIEELQQKPLCAKAENAR, the protein stability index falls from 2.03 to 1.71.

Compared with YQSYFKTIEELQQKQLCAKAENAR, YQSYFKTIEELQDKILCAKAENAR is higher in protein stability index: 1.71 for the first, 2.26 for the second.

Going from YQSYFKTIEELQIKILCAKAENAR to YQSYFKTIEELQEKILCAKAENAR, the protein stability index rises from 1.5 to 2.2.

Going from YQSYFKTIEELQPKILCAKAENAR to YQSYFKTIEELQFKILCAKAENAR, the protein stability index rises from 1.78 to 2.05.

Compared with YQSYFKTIEELQMKILCAKAENAR, YQSYFKTIEELQNKILCAKAENAR is higher in protein stability index: 1.82 for the first, 1.92 for the second.

Compared with YQSYFKTIEELQCKILCAKAENAR, YQSYFKTIEELQGKILCAKAENAR is higher in protein stability index: 1.82 for the first, 1.96 for the second.

Going from YQSYFKTIEELQYKILCAKAENAR to YQSYFKTIEELQHKILCAKAENAR, the protein stability index rises from 1.54 to 2.29.

Compared with YQSYFKTIEELQVKILCAKAENAR, YQSYFKTIEELQSKILCAKAENAR is lower in protein stability index: 1.96 for the first, 1.52 for the second.

Going from YQSYFKTIEELQLKILCAKAENAR to YQSYFKTIEELQAKILCAKAENAR, the protein stability index rises from 1.46 to 2.02.

Compared with YQSYFKTIEELQTKILCAKAENAR, YQSYFKTIEELQRKILCAKAENAR is higher in protein stability index: 1.74 for the first, 2.16 for the second.

First: YQSYFKTIEELQKKILCAKAENAR
Second: YQSYFKSIEELQQKILCAKAENAR
The protein stability index of the first is lower: 1.95 for the first, 3.16 for the second.

First: YQSYFKQIEELQQKILCAKAENAR
Second: YQSYFKRIEELQQKILCAKAENAR
The protein stability index of the first is higher: 2.07 for the first, 1.86 for the second.

Going from YQSYFKYIEELQQKILCAKAENAR to YQSYFKVIEELQQKILCAKAENAR, the protein stability index falls from 2.24 to 1.72.
